From patent US20250163145A1 (SHIONOGI, published 2025)
Like-named read-outs stand apart in the source and are kept apart here. Where no end group is shown, it is not given here.

T1: epitope peptide Cys-CE3C long (also: biotin label, site not given here)
T1 peptide: CSVNVDKQPKYEYSL


Legend:
[1] = target: T1, epitope peptide Cys-CE3C long; assay: competitive ELISA, unlabeled vs biotin-labeled peptide, antibody on anti-human IgG plate
Procedure: (§1) A diluted solution of the obtained recombinant humanized antibody, a biotin-labeled immunogen peptide, and Streptavidin-HRP (manufactured by PIERCE) were added to an anti-human IgG antibody-immobilized plate, and reacted overnight at 4° C. […] Next, a recombinant human antibody at the dilution rate, a biotin-labeled immunogen peptide, and Streptavidin-HRP (manufactured by PIERCE) were added. At the same time, a dilution series of unlabeled immunogenic peptide was added and reacted overnight at 4° C. After washing twice with ELISA wash buffer, TMB-Substrate Chromogen (manufactured by Thermo Fisher Scientific) was added to develop color, the reaction was stopped with an equal amount of 0.5N sulfuric acid, and the absorbance at 450 nm was measured. The concentration of the unlabeled peptide which attenuated the signal of the biotin-labeled peptide by half was defined as the affinity (IC50).
Mutants (h15H11-44 to 54) in which various mutations were introduced into the light chain human framework sequence of h15H11-2 (heavy chain variable region: IGHV7-4-1 Q43R, G44S, N58L, N100D, T100aD, R94P (SEQ ID NO: 33)/light chain variable region: IGKV7-3 E27D, M33L, Y36F, V78M (SEQ ID NO: 55)) produced in Example 7 were produced. Affinity evaluation was performed on the produced mutants by the method described in Example 5.

[2] = target: T1, epitope peptide Cys-CE3C long; assay: as above
Procedure: as §1
A mutant having the heavy chain variable region represented by IGHV7-4-1 Q43R, G44S, N58L, N100D, T100aD, R94P (SEQ ID NO: 33) and the light chain variable region represented by IGKV4-1 (SEQ ID NO: 18) produced in Example 3 was produced. New mutants (h15H11-55 to 67) were produced in which various mutations were introduced into the light chain human framework sequence of the produced mutants, and affinity evaluation was performed on the produced mutants by the method described in Example 5.

Binder | IC50 [1] | IC50 [2]
h15H11-44 (antibody, human IgG4 S228P, kappa, V domains shown, hIgG4Pro/hIgK) VH: QVQLVQSGSELKKPGASVKVSCKASGYTFTDYNMHWVRQAPGRSLEWMGRINPKNGVILSNEKFKDRFVFSLDTSVSTAYLQISSLKAEDTAVYYCAPSYYGGDDDAYWGQGTLVTVSS VL: DIVLTQSPASLAVSPGQRATITCRASDSVDNYGISFLNWFQQKPGQPPKLLIYAASSQGSGVPARFSGSGSGTDFTLTINPMEAEDTANYYCQQSKEFPWTFGGGTKVEIKR | 0.51 nM | –
h15H11-45 (antibody, human IgG4 S228P, kappa, V domains shown, hIgG4Pro/hIgK) VH: QVQLVQSGSELKKPGASVKVSCKASGYTFTDYNMHWVRQAPGRSLEWMGRINPKNGVILSNEKFKDRFVFSLDTSVSTAYLQISSLKAEDTAVYYCAPSYYGGDDDAYWGQGTLVTVSS VL: DIVLTQSPASLAVSPGQRATITCRASDSVDNYGISFLNWFQQKPGQPPKLLIYAASSQGSGVPARFSGSGSGTDFTLTINPMEAADTANYYCQQSKEFPWTFGGGTKVEIKR | 0.5 nM | –
h15H11-46 (antibody, human IgG4 S228P, kappa, V domains shown, hIgG4Pro/hIgK) VH: QVQLVQSGSELKKPGASVKVSCKASGYTFTDYNMHWVRQAPGRSLEWMGRINPKNGVILSNEKFKDRFVFSLDTSVSTAYLQISSLKAEDTAVYYCAPSYYGGDDDAYWGQGTLVTVSS VL: DIVLTQSPASLAVSPGQRATITCRASDSVDNYGISFLNWFQQKPGQPPKLLIYAASSQGSGVPARFSGSGSGTDFTLTINPMEAQDTANYYCQQSKEFPWTFGGGTKVEIKR | 0.5 nM | –
h15H11-47 (antibody, human IgG4 S228P, kappa, V domains shown, hIgG4Pro/hIgK) VH: QVQLVQSGSELKKPGASVKVSCKASGYTFTDYNMHWVRQAPGRSLEWMGRINPKNGVILSNEKFKDRFVFSLDTSVSTAYLQISSLKAEDTAVYYCAPSYYGGDDDAYWGQGTLVTVSS VL: DIVLTQSPASLAVSPGQRATITCRASDSVDNYGISFLNWFQQKPGQPPKLLIYAASSQGSGVPARFSGSGSGTDFTLTINPMEAFDTANYYCQQSKEFPWTFGGGTKVEIKR | 0.53 nM | –
h15H11-48 (antibody, human IgG4 S228P, kappa, V domains shown, hIgG4Pro/hIgK) VH: QVQLVQSGSELKKPGASVKVSCKASGYTFTDYNMHWVRQAPGRSLEWMGRINPKNGVILSNEKFKDRFVFSLDTSVSTAYLQISSLKAEDTAVYYCAPSYYGGDDDAYWGQGTLVTVSS VL: DIVLTQSPASLAVSPGQRATITCRASDSVDNYGISFLNWFQQKPGQPPKLLIYAASSQGSGVPARFSGSGSGTDFTLTINPMEALDTANYYCQQSKEFPWTFGGGTKVEIKR | 0.51 nM | –
h15H11-49 (antibody, human IgG4 S228P, kappa, V domains shown, hIgG4Pro/hIgK) VH: QVQLVQSGSELKKPGASVKVSCKASGYTFTDYNMHWVRQAPGRSLEWMGRINPKNGVILSNEKFKDRFVFSLDTSVSTAYLQISSLKAEDTAVYYCAPSYYGGDDDAYWGQGTLVTVSS VL: DIVLTQSPASLAVSPGQRATITCRASDSVDNYGISFLNWFQQKPGQPPKLLIYAASSQGSGVPARFSGSGSGTDFTLTINPMEAVDTANYYCQQSKEFPWTFGGGTKVEIKR | 0.62 nM | –
h15H11-50 (antibody, human IgG4 S228P, kappa, V domains shown, hIgG4Pro/hIgK) VH: QVQLVQSGSELKKPGASVKVSCKASGYTFTDYNMHWVRQAPGRSLEWMGRINPKNGVILSNEKFKDRFVFSLDTSVSTAYLQISSLKAEDTAVYYCAPSYYGGDDDAYWGQGTLVTVSS VL: DIVLTQSPASLAVSPGQRATITCRASDSVDNYGISFLNWFQQKPGQPPKLLIYAASSQGSGVPARFSGSGSGTDFTLTINPMEAIDTANYYCQQSKEFPWTFGGGTKVEIKR | 0.55 nM | –
h15H11-51 (antibody, human IgG4 S228P, kappa, V domains shown, hIgG4Pro/hIgK) VH: QVQLVQSGSELKKPGASVKVSCKASGYTFTDYNMHWVRQAPGRSLEWMGRINPKNGVILSNEKFKDRFVFSLDTSVSTAYLQISSLKAEDTAVYYCAPSYYGGDDDAYWGQGTLVTVSS VL: DIVLTQSPASLAVSPGQRATITCRASDSVDNYGISFLNWFQQKPGQPPKLLIYAASSQGSGVPARFSGSGSGTDFTLTINPMEADDTANYYCQQSKEFPWTFGGGTKVEIKR | 0.63 nM | –
h15H11-52 (antibody, human IgG4 S228P, kappa, V domains shown, hIgG4Pro/hIgK) VH: QVQLVQSGSELKKPGASVKVSCKASGYTFTDYNMHWVRQAPGRSLEWMGRINPKNGVILSNEKFKDRFVFSLDTSVSTAYLQISSLKAEDTAVYYCAPSYYGGDDDAYWGQGTLVTVSS VL: DIVLTQSPASLAVSPGQRATITCRASDSVDNYGISFLNWFQQKPGQPPKLLIYAASSQGSGVPARFSGSGSGTDFTLTINPMEARDTANYYCQQSKEFPWTFGGGTKVEIKR | 0.5 nM | –
h15H11-53 (antibody, human IgG4 S228P, kappa, V domains shown, hIgG4Pro/hIgK) VH: QVQLVQSGSELKKPGASVKVSCKASGYTFTDYNMHWVRQAPGRSLEWMGRINPKNGVILSNEKFKDRFVFSLDTSVSTAYLQISSLKAEDTAVYYCAPSYYGGDDDAYWGQGTLVTVSS VL: DIVLTQSPASLAVSPGQRATITCRASDSVDNYGISFLNWFQQKPGQPPKLLIYAASSQGSGVPARFSGSGSGTDFTLTINPMEAGDTANYYCQQSKEFPWTFGGGTKVEIKR | 0.55 nM | –
h15H11-54 (antibody, human IgG4 S228P, kappa, V domains shown, hIgG4Pro/hIgK) VH: QVQLVQSGSELKKPGASVKVSCKASGYTFTDYNMHWVRQAPGRSLEWMGRINPKNGVILSNEKFKDRFVFSLDTSVSTAYLQISSLKAEDTAVYYCAPSYYGGDDDAYWGQGTLVTVSS VL: DIVLTQSPASLAVSPGQRATITCRASDSVDNYGISFLNWFQQKPGQPPKLLIYAASSQGSGVPARFSGSGSGTDFTLTINPMEANPTANYYCQQSKEFPWTFGGGTKVEIKR | 0.72 nM | –
h15H11-64 (antibody, human IgG4 S228P, kappa, hIgG4Pro/hIgK) heavy: not shown light: DIVMTQSPDSLAVSLGERATINCRASDSVDNYGISFLNWFQQKPGQPPKLLIYAASSQGSGVPARFSGSGSGTDFTLTISSMQAEDVAVYYCQQSKEFPWTFGGGTKVEIKRTVAAPSVFIFPPSDEQLKSGTASVVCLLNNFYPREAKVQWKVDNALQSGNSQESVTEQDSKDSTYSLSSTLTLSKADYEKHKVYACEVTHQGLSSPVTKSFNRGEC | – | 0.68 nM
h15H11-65 (antibody, human IgG4 S228P, kappa, V domains shown, hIgG4Pro/hIgK) VH: QVQLVQSGSELKKPGASVKVSCKASGYTFTDYNMHWVRQAPGRSLEWMGRINPKNGVILSNEKFKDRFVFSLDTSVSTAYLQISSLKAEDTAVYYCAPSYYGGDDDAYWGQGTLVTVSS VL: DIVMTQSPDSLAVSLGERATINCRASDSVDNYGISFLNWFQQKPGQPPKLLIYAASSQGSGVPARFSGSGSGTDFTLTISSMQAEDVAMYYCQQSKEFPWTFGGGTKVEIKR | – | 0.75 nM
h15H11-66 (antibody, human IgG4 S228P, kappa, hIgG4Pro/hIgK) heavy: not shown light: DIVLTQSPASLAVSLGERATINCRASDSVDNYGISFLNWFQQKPGQPPKLLIYAASSQGSGVPARFSGSGSGTDFTLTISSMQAEDVAVYYCQQSKEFPWTFGGGTKVEIKRTVAAPSVFIFPPSDEQLKSGTASVVCLLNNFYPREAKVQWKVDNALQSGNSQESVTEQDSKDSTYSLSSTLTLSKADYEKHKVYACEVTHQGLSSPVTKSFNRGEC | – | 0.53 nM
h15H11-67 (antibody, human IgG4 S228P, kappa, hIgG4Pro/hIgK) heavy: not shown light: DIVLTQSPASLAVSLGQRATINCRASDSVDNYGISFLNWFQQKPGQPPKLLIYAASSQGSGVPARFSGSGSGTDFTLTISSMQAEDVAVYYCQQSKEFPWTFGGGTKVEIKRTVAAPSVFIFPPSDEQLKSGTASVVCLLNNFYPREAKVQWKVDNALQSGNSQESVTEQDSKDSTYSLSSTLTLSKADYEKHKVYACEVTHQGLSSPVTKSFNRGEC | – | 0.46 nM
